Among the data in paper PMC10786891, “Massively parallel profiling of RNA-targeting CRISPR-Cas13d” are Kd values, retold here.

One may read the Kd as the constant that tells how readily two partners part at equilibrium.

Numbering of substitutions follows the chain as printed. In names and notes the source's numbering stands.

First the molecules themselves.
B1: target 1 G5A,U11A (mixed)
RNA 1: CACCCGUGCAAAAAUGCAGGGGUCUAAAACUGAGCGGAUAACCUCUCUAUGG
RNA 2: GGGAAUGGAUCCACAUCUACGAAUUCGUACCAUAGAGAGGAUAUCCACUCACCGAGAUCGGAAGAGCACACGU
B2: target 1 insG 3' of 16,insC 3' of 1 (mixed)
RNA 1: B1 RNA 1
RNA 2: GGGAAUGGAUCCACAUCUACGAAUUCGUACCAUAGAGGAGGUUAUCCGCUCACCCGAGAUCGGAAGAGCACACGU
B3: target 1 insA 3' of 17,insC 3' of 15 (mixed)
RNA 1: B1 RNA 1
RNA 2: GGGAAUGGAUCCACAUCUACGAAUUCGUACCAUAGAAGCAGGUUAUCCGCUCACCGAGAUCGGAAGAGCACACGU
B4: target 1 A20C,C22G (mixed)
RNA 1: B1 RNA 1
RNA 2: B1 RNA 2 with C30G, A32C, A41U, A47G
B5: target 1 G5A,A9C (mixed)
RNA 1: B1 RNA 1
RNA 2: B1 RNA 2 with A41U, A43C
B6: target 1 U3G,U11C (mixed)
RNA 1: B1 RNA 1
RNA 2: B1 RNA 2 with A41C, A47G, U49G
B7: target 1 insC 3' of 17,insC 3' of 9 (mixed)
RNA 1: B1 RNA 1
RNA 2: B3 RNA 2 with A36C, C39A, A40G, G42U, U44A, A45C
B8: target 1 insG 3' of 16,insA 3' of 2 (mixed)
RNA 1: B1 RNA 1
RNA 2: B2 RNA 2 with C53A
B9: target 1 insU 3' of 14,insC 3' of 8 (mixed)
RNA 1: B1 RNA 1
RNA 2: B3 RNA 2 with A37G, G38A, C39U, A40G, G42U, U44A, A45U, U46C
B10: target 1 C2A,U3C (mixed)
RNA 1: B1 RNA 1
RNA 2: B1 RNA 2 with A41U, A47G, U49C, C50A
B11: target 1 insC 3' of 20,insG 3' of 10 (mixed)
RNA 1: B1 RNA 1
RNA 2: B3 RNA 2 with U33C, A34U, G35A, A36G, C39A, A40G, G42U, U44G
B12: target 1 insU 3' of 22,insA 3' of 21 (mixed)
RNA 1: B1 RNA 1
RNA 2: B3 RNA 2 with C31U, A32C, U33A, G35U, A37G, G38A, C39G
B13: target 1 U11C,A16G (mixed)
RNA 1: B1 RNA 1
RNA 2: B1 RNA 2 with A36G, A41C, A47G
B14: target 1 insC 3' of 9 (mixed)
RNA 1: B1 RNA 1
RNA 2: GGGAAUGGAUCCACAUCUACGAAUUCGUACCAUAGAGAGGUUACUCCGCUCACCGAGAUCGGAAGAGCACACGU
B15: target 1 insA 3' of 19,insC 3' of 18 (mixed)
RNA 1: B1 RNA 1
RNA 2: B3 RNA 2 with G35A, A36C, A37G, G38A, C39G
B16: target 1 insG 3' of 16,insC 3' of 11 (mixed)
RNA 1: B1 RNA 1
RNA 2: B3 RNA 2 with A37G, C39A, A40G, G42U, U43C
B17: target 1 complement block 2-5 (mixed)
RNA 1: B1 RNA 1
RNA 2: B1 RNA 2 with A41U, A47C, C48G, U49A, C50G
B18: target 1 insG 3' of 16,insU 3' of 6 (mixed)
RNA 1: B1 RNA 1
RNA 2: B2 RNA 2 with G48U, C49G, U50C, C51U, A52C, C53A
B19: target 1 insA 3' of 11,insG 3' of 10 (mixed)
RNA 1: B1 RNA 1
RNA 2: B3 RNA 2 with A37G, G38A, C39G, A40G, G41U, G42A, U44G
B20: target 1 insC 3' of 3 (mixed)
RNA 1: B1 RNA 1
RNA 2: B14 RNA 2 with C44U, U45C, C47G, G48C, C49U, U50C
B21: target 1 insC 3' of 12,insA 3' of 6 (mixed)
RNA 1: B1 RNA 1
RNA 2: B2 RNA 2 with G38A, A39G, G41C, G48A, C49G, U50C, C51U, A52C, C53A
B22: target 1 insG 3' of 16,insG 3' of 1 (mixed)
RNA 1: B1 RNA 1
RNA 2: B2 RNA 2 with C53G
B23: target 1 insG 3' of 4,insC 3' of 3 (mixed)
RNA 1: B1 RNA 1
RNA 2: GGGAAUGGAUCCACAUCUACGAAUUCGUACCAUAGAGAGGUUAUCCGCGUCCACCGAGAUCGGAAGAGCACACGU
B24: target 1 U10C,C22A (mixed)
RNA 1: B1 RNA 1
RNA 2: B1 RNA 2 with C30A, A41U, U42C, A47G
B25: target 1 G5U,U8C (mixed)
RNA 1: B1 RNA 1
RNA 2: B1 RNA 2 with A41U, U44C, A47U
B26: target 1 U11C,G12U (mixed)
RNA 1: B1 RNA 1
RNA 2: B1 RNA 2 with G40U, A41C, A47G
B27: target 1 insC 3' of 14,insU 3' of 2 (mixed)
RNA 1: B1 RNA 1
RNA 2: B2 RNA 2 with G38A, A39C, A52U, C53A
B28: target 1 insG 3' of 14,insG 3' of 2 (mixed)
RNA 1: B1 RNA 1
RNA 2: B2 RNA 2 with G38A, A39G, A52G, C53A
B29: target 1 insG 3' of 21,insA 3' of 15 (mixed)
RNA 1: B1 RNA 1
RNA 2: B3 RNA 2 with A32G, U33A, A34U, G35A, A36G, C39A
B30: target 1 insU 3' of 12,insU 3' of 5 (mixed)
RNA 1: B1 RNA 1
RNA 2: B23 RNA 2 with A43U, U44A, C45U, G47C, C48G, G49U, U50C, C51U
B31: target 1 insU 3' of 15,insC 3' of 12 (mixed)
RNA 1: B1 RNA 1
RNA 2: B3 RNA 2 with A37G, G38U, C39A, A40G, G42C
B32: target 1 insC 3' of 8,insU 3' of 5 (mixed)
RNA 1: B1 RNA 1
RNA 2: B23 RNA 2 with G47C, C48G, G49U, U50C, C51U

The target in this series is T1, EsCas13d, nuclease-dead (Eubacterium siraeum, UniProt B0MS50, R295A;H300A;R849A;H854A).
T1 sequence: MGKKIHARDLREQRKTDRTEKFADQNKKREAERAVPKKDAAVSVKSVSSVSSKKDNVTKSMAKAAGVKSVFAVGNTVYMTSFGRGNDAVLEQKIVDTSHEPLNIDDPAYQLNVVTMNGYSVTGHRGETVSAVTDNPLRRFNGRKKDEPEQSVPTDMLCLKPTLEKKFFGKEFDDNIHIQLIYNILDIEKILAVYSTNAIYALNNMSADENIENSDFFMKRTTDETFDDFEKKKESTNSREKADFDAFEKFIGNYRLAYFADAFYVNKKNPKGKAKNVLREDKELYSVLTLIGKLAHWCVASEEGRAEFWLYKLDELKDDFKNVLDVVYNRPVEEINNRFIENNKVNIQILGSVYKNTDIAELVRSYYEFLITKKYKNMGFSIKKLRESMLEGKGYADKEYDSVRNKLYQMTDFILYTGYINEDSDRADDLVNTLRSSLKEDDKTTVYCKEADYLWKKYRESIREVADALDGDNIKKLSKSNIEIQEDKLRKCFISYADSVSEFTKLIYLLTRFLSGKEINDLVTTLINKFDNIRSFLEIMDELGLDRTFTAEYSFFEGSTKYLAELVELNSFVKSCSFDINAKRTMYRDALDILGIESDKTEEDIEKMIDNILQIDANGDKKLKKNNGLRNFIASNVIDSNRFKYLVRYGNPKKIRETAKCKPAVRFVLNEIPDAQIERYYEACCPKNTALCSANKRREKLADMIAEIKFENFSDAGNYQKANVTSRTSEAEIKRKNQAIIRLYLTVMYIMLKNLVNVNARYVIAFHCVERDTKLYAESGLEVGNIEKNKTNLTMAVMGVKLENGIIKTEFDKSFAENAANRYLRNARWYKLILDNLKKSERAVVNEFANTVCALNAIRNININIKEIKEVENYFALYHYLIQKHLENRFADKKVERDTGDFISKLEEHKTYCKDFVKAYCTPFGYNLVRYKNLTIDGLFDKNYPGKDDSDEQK
Put plainly: crRNA (strand 1, pre-loaded); Mg2+; 40 mM Tris-HCl pH 7.5, 150 mM NaCl, 6 mM MgCl2, 1 mM DTT, 0.1% Tween-20, 0.2 mg/ml BSA; 25 C; 10 min per concentration, then washed. The following applies: tags: His6-TwinStrep-SUMO cleaved; N-terminal SNAP kept (SNAP-Surface 488); label: 3' end held by stalled T7 RNA polymerase.
Consider B1, for which the Kd was 54 ± 10 nM. In the case of B2 it was 11.9 ± 1.1 nM; in that of B3, 12.5 ± 1.4 nM; in that of B4, 39.2 ± 2.3 nM. In the case of B5, the affinity, expressed as Kd, was 16.7 ± 1.2 nM.

The molecule B6 came in with a Kd of 9.9 ± 0.7 nM. In the case of B7 it was 58 ± 13 nM. Turning to B8, the Kd was 14.3 ± 0.9 nM.

For B9, the Kd stood at 90 ± 40 nM. Turning to B10, the equilibrium dissociation constant (Kd) worked out at 13 ± 1 nM. For B11, the dissociation constant (Kd) was 13.4 ± 2 nM. In the case of B12 it was 66 ± 6 nM; in that of B13, 80 ± 8 nM; in that of B14, 10.8 ± 0.4 nM. Molecule B15 had a Kd of 56 ± 5 nM. This Kd is about 5.2-fold higher than that of the molecule before. In the case of B16 it was 46 ± 11 nM; in that of B17, 10.6 ± 0.6 nM. In the case of B18 it was 21 ± 1 nM. On to B19, for which binding was put at a Kd of 16.5 ± 0.7 nM. Molecule B20 had a Kd of 12.6 ± 0.8 nM. In the case of B21 it was 11.1 ± 0.5 nM. Regarding B22, the Kd turned out to be 13 ± 0.8 nM. For B23, the Kd worked out at 13.4 ± 1.1 nM.

B24: binding was characterised by a dissociation constant (Kd) of 35.5 ± 2 nM. The molecule B25 had a Kd of 57 ± 12 nM. Against the preceding molecule, the Kd is about 1.6-fold higher. Regarding B26, the Kd turned out to be 10.2 ± 0.5 nM.

The molecule B27 showed a Kd of 59 ± 11 nM. Against the preceding molecule, the Kd is about 5.8-fold higher. As for B28, the Kd worked out at 11.8 ± 0.7 nM. In the case of B29 it was 37 ± 6 nM; in that of B30, 11 ± 0.7 nM. In the case of B31 it was 35 ± 8 nM. B32: binding was characterised by a dissociation constant (Kd) of 16.1 ± 1.2 nM.
